From patent publication CN116731161A (UNIV NANKAI, dated 2023)

Target: T1, FcγRI (UniProt P12314 16-288)
T1 construct: also called CD64
Test: SPR (Biacore T200), His-tagged target captured on anti-His chip, antibody as analyte

T1 sequence (P12314 16-288 limits assumed): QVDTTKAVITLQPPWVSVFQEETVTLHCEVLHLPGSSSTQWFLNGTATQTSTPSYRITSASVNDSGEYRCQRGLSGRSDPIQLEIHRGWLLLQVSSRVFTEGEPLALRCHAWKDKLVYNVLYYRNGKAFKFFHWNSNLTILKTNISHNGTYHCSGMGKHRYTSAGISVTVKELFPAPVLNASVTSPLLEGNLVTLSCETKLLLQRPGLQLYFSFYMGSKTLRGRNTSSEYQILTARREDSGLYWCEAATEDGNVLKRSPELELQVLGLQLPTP

binding result: binds
B1: X构型Rituximab抗体 (antibody, human IgG1, kappa)
heavy: not shown
light: QIVLSQSPAILSASPGEKVTMTCRASSSVSYIHWFQQKPGSSPKPWIYATSNLASGVPVRFSGSGSGTSYSLTISRVEAEDAATYYCQQWTSNPPTFGGGTKLEIKRTVAAPSVFIFPPSDEQLKSGTASVVCLLNNFYPREAKVQWKVDNALQSGNSQESVTEQDSKDSTYSLSSTLTLSKADYEKHKVYACEVTHQGLSSPVTKSFNRGECGGGGSGGGGSGGGGSGGGGSGGGGSGGGGSVPPPPPCCHPRLSLHRPALEDLLLGSEANLTCTLTGLRDASGVTFTWTPSSGKSAVQGPPERDLCGCYSVSSVLPGCAEPWNHGKTFTCTAAYPESKTPLTATLSKSGNTFRPEVHLLPPPSEELALNELVTLTCLARGFSPKDVLVRWLQGSQELPREKYLTWASRQEPSQGTTTFAVTSILRVAAEDWKKGDTFSCMVGHEALPLAFTQKTIDRLAGK
notes: also called X构型抗体; Rituximab X-body
